These results are taken from publication PMC12462500.

For the assay, the target named is SNAP-tagged human melanocortin-4 receptor (SNAP-MC4R) (human) (UniProt P32245).
Chain of UniProt P32245 (P32245 whole entry): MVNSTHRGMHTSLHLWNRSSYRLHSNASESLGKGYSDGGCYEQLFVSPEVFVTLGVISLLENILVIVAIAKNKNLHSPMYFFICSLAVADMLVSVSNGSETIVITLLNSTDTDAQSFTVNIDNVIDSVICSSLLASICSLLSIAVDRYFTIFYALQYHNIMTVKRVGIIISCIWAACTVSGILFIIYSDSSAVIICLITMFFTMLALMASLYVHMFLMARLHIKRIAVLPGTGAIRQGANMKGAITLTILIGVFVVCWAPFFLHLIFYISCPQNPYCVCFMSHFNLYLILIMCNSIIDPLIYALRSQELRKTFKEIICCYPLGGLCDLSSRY

In the case of α-MSH (peptide), the EC50 of α-MSH-stimulated cAMP production (Epac-S^H187 FRET biosensor, HEK293), MC4R + mock amounted to 4.5 nM and the EC50 of α-MSH-stimulated cAMP production (Epac-S^H187 FRET biosensor, HEK293), MC4R co-expressed with MRAP2 (1 + 1 or 1 + 4) was found to be 1.3 nM.
